From US20070254831A1 (published 2007) come the findings set out here.

Test [1] addresses T1, soluble human FcRn (human, UniProt P55899 24-297; P61769 21-119, biotinylated (Sulfo-NHS-LC-Biotin) in the ELISA; amine-coupled to CM5 chip in SPR).
T1 construct: also called shFcRn; biotinylated shFcRn
Briefly: ELISA, competitor human IgG. (In an ELISA, binding on a coated surface is turned into a signal by an enzyme label.)
Procedure: (§1) The wells were coated with 100 μl/well of 1 μg/ml biotinylated-shFcRn in Buffer A. The plate was sealed and incubated at 37° C. for 2 hours. Afterwards, the plate washed with 200 μl/well of Buffer B (Buffer B: 100 mM MES pH 6, 150 mM NaCl, 0.5% BSA IgG-free (Jackson ImmunoResearch, West Grove, Pa.), 0.05% Tween-20). […] To allow for mixing, the plate was rocked for 2 minutes, sealed and incubated at 37° C. for 2 hours. […] The plate was covered, incubated for 30 minutes at room temperature and washed 4 times with 200 μl/well of ice-cold buffer B. SureBlue TMB substrate solution (100 μl/well, KPL, Gaithersburg, Md.) was added and the plate was allowed to incubate at room temperature until color developed, which took 5 to 10 minutes. Once color developed, 100 μl/well of TMB stop solution (KPL, Gaithersburg, Md.) was added and the absorbance was measured at 450 nm. The data was plotted as absorbance vs. peptide concentration to derive the inhibitory concentration 50% (IC₅₀) values.

Test [2] concerns the target T1, soluble human FcRn. Briefly: SPR, pH 6. A general note: SPR reads the build-up and loss of mass on a sensor chip optically.
Procedure: (§2) The following steps were performed to cross-link soluble human or cynomolgus FcRn to the dextran surface of a CM5 sensor chip (Biacore AB, Uppsala, Sweden) by an amine coupling reaction involving 1-ethyl-(3-dimethylaminopropyl)-carbodiimide hydrochloride (EDC) (Biacore AB, Uppsala, Sweden) and N-hydroxysuccinimide (NHS) (Biacore AB, Uppsala, Sweden) as recommended by Biacore (BIAapplications Handbook, version AB, section 4.2, Biacore AB, Uppsala, Sweden). […] Residual sites on the FcRn flow cell were blocked with 1 M ethanolamine hydrochloride pH 8.5 (Biacore AB, Uppsala, Sweden). A control flow cell was blocked with ethanolamine for reference subtraction. For analysis of the monomeric peptides, FcRn was coated to a final density of 4000-5000 response units (RU). For analysis of the peptide dimers, FcRn was coated to a density of 2000-2500 RU. All SPR measurements were performed using a BIACORE 3000 Instrument (Biacore AB Uppsala, Sweden). For measurements done at either pH 6 or pH 7.4, experiments were performed in 50 mM phosphate, 100 mM sodium chloride, 0.01% surfactant P20 (Biacore AB, Uppsala, Sweden).
(§3) Ten, 2-fold dilutions of the peptide were injected over the FcRn-CM5 chip at a rate of 20 μl/min for 2 min. The peptide was dissociated from the chip for 2.5 minutes with buffer. Any remaining peptide was removed from the chip with a 30 second injection of HBS-P buffer (Biacore AB, Uppsala, Sweden) at a rate of 30 μl/min. Sensorgrams were generated and analyzed using BiaEval software version 3.1 (Biacore AB, Uppsala, Sweden). The equilibrium RU observed for each injection was plotted against concentration. The equilibrium KD values were derived by analysis of the plots using the steady state affinity model included in the BiaEval software.
Test [3] deals with T1, soluble human FcRn. Briefly: ELISA, competitor human IgG. The source holds these as a separate data set.
Procedure: as §1
Test [4] concerns the target T1, soluble human FcRn. Kind of test: ELISA, competitor human IgG. This is another data set of the same source.
Procedure: as §1
Test [5] has as its target T1, soluble human FcRn. Briefly: SPR, pH 6. The source holds these as a separate data set.
Procedure: as §2, §3
In test [6] the target is T1, soluble human FcRn. Briefly: ELISA, competitor human IgG. This is another data set of the same source.
Procedure: as §1
Test [7] addresses T1, soluble human FcRn. Briefly: ELISA, competitor human IgG. This is another data set of the same source.
Procedure: as §1
The target in test [8] is T1, soluble human FcRn. Briefly: ELISA, competitor human IgG. This is another data set of the same source.
Procedure: as §1
The target of test [9] is T1, soluble human FcRn. Briefly: SPR, pH 6. This is another data set of the same source.
Test [10] addresses T1, soluble human FcRn. Briefly: ELISA, competitor human IgG. This is another data set of the same source.
Procedure: as §1
In test [11] the target is T1, soluble human FcRn. Kind of test: SPR, pH 6. The source holds these as a separate data set.
Procedure: as §2, §3
The target of test [12] is T1, soluble human FcRn. Kind of test: SPR, pH 7.4.
Procedure: as §2, §3
The target of test [13] is T1, soluble human FcRn. Briefly: ELISA, competitor human IgG. This is another data set of the same source.
Procedure: as §1
Test [14] concerns the target T1, soluble human FcRn. Briefly: SPR, pH 6. The source holds these as a separate data set.
Procedure: as §2, §3

Where two headings read alike, the source gives them in different places. Numbered stars: 1 amine (or outer) side, 2 acyl side, 3 side chain; on linkers, the order of the positions; unused ones are H or OH. Bridge positions count the residues as written; N and C are the ends. Square brackets hold non-standard residues; d marks the D form. Ends that are not written are not given here. X3 = 3(S)‑3‑amino‑2‑oxo‑1‑azepine acetic acid, O=C1[C@@H](N[*:1])CCCCN1CC(=O)[*:2]; X2 = (3R)‑3‑amino‑1‑carboxymethyl‑valerolactam, O=C1[C@H](N[*:1])CCCN1CC(=O)[*:2]; 3‑amino‑2‑oxo‑1‑piperidine‑acetic acid = dipeptide mimetic in place of Gly-Gly; 6,5‑bicyclic dipeptide mimic = not defined here; NMeL = CN[C@@H](CC(C)C)C(=O)O; Pen = CC(C)(S)[C@H](N)C(=O)O; NMeA = CN[C@@H](C)C(=O)O

The term IC50 denotes the concentration that inhibits the measured activity by half. Usually Kd stands for the concentration at which binding is half-saturated.

T1 sequence (P55899 24-297 limits assumed, chain 1 of 2): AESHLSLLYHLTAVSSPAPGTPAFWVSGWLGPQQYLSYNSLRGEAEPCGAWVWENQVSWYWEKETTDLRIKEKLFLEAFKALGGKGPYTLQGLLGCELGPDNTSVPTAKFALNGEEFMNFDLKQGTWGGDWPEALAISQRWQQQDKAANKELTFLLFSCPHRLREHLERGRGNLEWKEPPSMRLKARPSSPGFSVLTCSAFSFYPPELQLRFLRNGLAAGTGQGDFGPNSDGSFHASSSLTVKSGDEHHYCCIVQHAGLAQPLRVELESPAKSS
T1 sequence (P61769 21-119 limits assumed, chain 2 of 2): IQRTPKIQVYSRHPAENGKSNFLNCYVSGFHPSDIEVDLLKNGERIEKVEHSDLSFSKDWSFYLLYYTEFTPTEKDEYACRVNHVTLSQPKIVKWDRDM

B1: Peptide No. 178 (peptide)
peptide: RFXTGHFXLYPC
modifications: Pen at 3; X at 8 = 3-amino-2-oxo-1-piperidine-acetic acid (drawing CHEM-US-00080); disulfide; C-terminal amide
B1 displayed an IC50 with soluble human FcRn [1] of 660 nM. The molecule further gave a Kd with soluble human FcRn [2] of 160 nM.
On to QRFXTGHFGGLYPCNGP (D-Phe at 3; Pen at 4; disulfide; C-terminal amide) [Peptide No. 96], for which the IC50 with soluble human FcRn [3] is 11400 nM. This lies in the double-digit micromolar range.

B2: Peptide No. 185 (peptide)
peptide: RFVTGHFXLYPA
modifications: X at 8 = 3-amino-N-1-carboxymethyl-2,3,4,5-tetrahydro-1H-[1]-benzazepine-2-one (drawing CHEM-US-00097); linear; C-terminal amide
On to B2, for which the IC50 in the test with soluble human FcRn [4] was determined as 57 µM. Besides, the Kd in the test with soluble human FcRn [5] turned out to be 3.1 µM.

B3: Peptide No. 287 (peptide)
peptide: RFXTGHFGGLYPCG
modifications: Pen at 3; Sar at 9; NMeLeu at 10; intrachain disulfide; C-termini joined on a branching Lys
notes: C-terminally linked dimer
B3 yielded an IC50 in the test with soluble human FcRn [6] of 20 nM. In other words, the double-digit nanomolar range.

B4: Peptide No. 127 (peptide)
peptide: QRFDTGHFGGLYPKN-NH2
modifications: lactam 4-14; N-terminus assumed
SMILES: CC(C)C[C@@H]1NC(=O)CNC(=O)CNC(=O)[C@H](Cc2ccccc2)NC(=O)[C@H](Cc2c[nH]cn2)NC(=O)CNC(=O)[C@H]([C@@H](C)O)NC(=O)[C@@H](NC(=O)[C@H](Cc2ccccc2)NC(=O)[C@H](CCCNC(=N)N)NC(=O)[C@@H](N)CCC(N)=O)CC(=O)NCCCC[C@@H](C(=O)N[C@@H](CC(N)=O)C(N)=O)NC(=O)[C@@H]2CCCN2C(=O)[C@H](Cc2ccc(O)cc2)NC1=O
Take B4: in the test with soluble human FcRn [7], the IC50 is 7.6 µM.
As to RFVTGHF[6,5‑bicyclic dipeptide mimic]LYPA-NH2 (reading uncertain) [Peptide No. 207], the IC50 with soluble human FcRn [4] is greater than 125 µM. The Kd in the test with soluble human FcRn [5] came to 20 µM.
RFXTGHFGGLYPC (Pen at 3; disulfide; C-terminal amide) [Peptide No. 99]: the IC50 in the test with soluble human FcRn [1] and with soluble human FcRn [8] was 2000 nM throughout.
Molecule QRFVTGHF[3‑amino‑2‑oxo‑1‑piperidine‑acetic acid]WYPINGP-NH2 (also: further groups not given here) [Peptide No. 191] returned a Kd with soluble human FcRn [5] of 333 µM.
Consider QRYXTGHFGGLYPCNGP (Pen at 4; disulfide; C-terminal amide) [Peptide No. 97], for which the IC50 with soluble human FcRn [3] was 2400 nM.
The same measure, in the same setting: then QRWXTGHFGGLYPCNGP (Pen at 4; disulfide; C-terminal amide) [Peptide No. 98], with 1500 nM.
Regarding QRFXTGHFGGLYPENGP (Orn at 4; side-chain lactam bridge Orn 4-Glu 14; C-terminal amide) [Peptide No. 131], the IC50 with soluble human FcRn [7] came to 30 µM.
Regarding QRFXGGHFGGLYPCNGP (Pen at 4; disulfide; C-terminal amide) [Peptide No. 195], the Kd with soluble human FcRn [9] is 760 nM.

B5: Peptide No. 279 (peptide)
peptide: RFXTGHFGGLYPC
modifications: Pen at 3; Sar at 9; NMeLeu at 10; intrachain disulfide; C-terminal amide; N-termini joined by Bis-dPEG6 diacid linker
notes: N-terminally linked dimer
B5 had an IC50 in the test with soluble human FcRn [6] of 7 nM.

B6: Peptide No. 107 (peptide)
peptide: QRFDTGHFGGLYKNGP-NH2
modifications: lactam 4-13; N-terminus assumed
SMILES: CC(C)C[C@@H]1NC(=O)CNC(=O)CNC(=O)[C@H](Cc2ccccc2)NC(=O)[C@H](Cc2c[nH]cn2)NC(=O)CNC(=O)[C@H]([C@@H](C)O)NC(=O)[C@@H](NC(=O)[C@H](Cc2ccccc2)NC(=O)[C@H](CCCNC(=N)N)NC(=O)[C@@H](N)CCC(N)=O)CC(=O)NCCCC[C@@H](C(=O)N[C@@H](CC(N)=O)C(=O)NCC(=O)N2CCC[C@H]2C(N)=O)NC(=O)[C@H](Cc2ccc(O)cc2)NC1=O
As for B6, the IC50 in the test with soluble human FcRn [7] was greater than 125 µM.

B7: Peptide No. 208 (peptide)
peptide: RFVTGHF[X3]LYPA-NH2
modifications: N-terminus assumed
SMILES: CC(C)C[C@H](NC(=O)CN1CCCC[C@H](NC(=O)[C@H](Cc2ccccc2)NC(=O)[C@H](Cc2c[nH]cn2)NC(=O)CNC(=O)[C@@H](NC(=O)[C@@H](NC(=O)[C@H](Cc2ccccc2)NC(=O)[C@@H](N)CCCNC(=N)N)C(C)C)[C@@H](C)O)C1=O)C(=O)N[C@@H](Cc1ccc(O)cc1)C(=O)N1CCC[C@H]1C(=O)N[C@@H](C)C(N)=O
In the case of B7, the IC50 with soluble human FcRn [4] turned out to be 23 µM. The same molecule displayed an equilibrium dissociation constant (Kd) with soluble human FcRn [5] of 2.3 µM.

B8: Peptide No. 182 (peptide)
peptide: RFVTGHFXLYPA
modifications: X at 8 = 3-amino-2-oxo-1-piperidine-acetic acid (drawing CHEM-US-00094); linear; C-terminal amide
Take B8: the IC50 with soluble human FcRn [4] is 38 µM.

B9: Peptide No. 280 (peptide)
peptide: RFXTGHFGGLYPC
modifications: not fully specified; Pen at 3; Sar at 9; NMeLeu at 10; intrachain disulfide; C-termini joined on the two amines of a branching Lys
notes: C-terminally linked dimer
Molecule B9 returned an IC50 with soluble human FcRn [6] of 25 nM.
In the test with soluble human FcRn [10], QRFCTGHFAGLYPCNGP-NH2 (disulfide 4-14 (inferred)) [SEQ ID NO:31] returned a half-maximal inhibitory concentration (IC50) greater than 125 µM. In addition, the Kd with soluble human FcRn [11] worked out at 230 µM; with soluble human FcRn [12] it was 200 µM.
With QRFCTGHFGGLYACNGP-NH2 (disulfide 4-14 (inferred)) [SEQ ID NO:35], in the test with soluble human FcRn [12], the dissociation constant Kd worked out at 100 µM.
Molecule QRFCTGHFGGAYPCNGP-NH2 (disulfide 4-14 (inferred)) [SEQ ID NO:33] registered an IC50 with soluble human FcRn [10] of 107 µM. The Kd was 26 µM with soluble human FcRn [11] and 81 µM with soluble human FcRn [12].

B10: Peptide No. 228 (peptide)
peptide: RF[Pen][NMeA]GHF[X2][NMeL]YPC-NH2
modifications: disulfide 3-12; N-terminus assumed
SMILES: CC(C)C[C@H]1C(=O)N[C@@H](Cc2ccc(O)cc2)C(=O)N2CCC[C@H]2C(=O)N[C@H](C(N)=O)CSSC(C)(C)[C@H](NC(=O)[C@H](Cc2ccccc2)NC(=O)[C@@H](N)CCCNC(=N)N)C(=O)N(C)[C@@H](C)C(=O)NCC(=O)N[C@@H](Cc2c[nH]cn2)C(=O)N[C@@H](Cc2ccccc2)C(=O)N[C@@H]2CCCN(CC(=O)N1C)C2=O
Take B10: the IC50 with soluble human FcRn [1] was found to be 1100 nM. Binding in the test with soluble human FcRn [2] was put at a Kd of 145 nM.

B11: Peptide No. 205 (peptide)
peptide: RFXTGHFXLYPC
modifications: Pen at 3; X at 8 = 3(S)-3-amino-2-oxo-1-azepine acetic acid; disulfide; C-terminal amide
B11: the IC50 in the test with soluble human FcRn [1] is 640 nM. The molecule also came in with a Kd in the test with soluble human FcRn [2] of 103 nM.

B12: Peptide No. 179 (peptide)
peptide: RFXTGHFXLYPC
modifications: Pen at 3; X at 8 = 3-amino-2-oxo-1-piperidine-acetic acid (drawing CHEM-US-00081); disulfide; C-terminal amide
Turning to B12, the IC50 with soluble human FcRn [1] came to 7200 nM. Besides, binding in the test with soluble human FcRn [2] was characterised by a dissociation constant (Kd) of 670 nM.

B13: Peptide No. 288 (peptide)
peptide: RFXTGHFGGLYPCGG
modifications: Pen at 3; Sar at 9; NMeLeu at 10; intrachain disulfide; C-termini joined on a branching Lys
notes: C-terminally linked dimer
In turn, B13 showed an IC50 with soluble human FcRn [6] of 16 nM. This lies in the double-digit nanomolar range.

B14: Peptide No. 201 (peptide)
peptide: QRFXTGHFGGLYPCNGP
modifications: Pen at 4; intrachain disulfide; C-terminal amide; N-termini joined by ethylene glycol-bis(succinic acid) linker
notes: N-terminally linked dimer
In the case of B14, the IC50 in the test with soluble human FcRn [6] was determined as 26 nM.
In the test with soluble human FcRn [8], RFXTGHFGPLYPCNGP (Pen at 3; D-Pro at 9; disulfide; C-terminal amide) [Peptide No. 144] came in with an IC50 of 1500 nM. In other words, the single-digit micromolar range.
On to QRFXTGHFGGLXPCNGP (Pen at 4; 3-pyridylAla at 12; disulfide; C-terminal amide) [Peptide No. 67], for which the IC50 with soluble human FcRn [13] is 92 µM. Also, the affinity with soluble human FcRn [14], expressed as Kd, was 34 µM.

B15: Peptide No. 197 (peptide)
peptide: RFXTGHFXLYPC
modifications: Pen at 3; X at 8 = 5,5-bicyclic dipeptide mimic (drawing CHEM-US-00085); disulfide; C-terminal amide
In turn, B15 showed a dissociation constant (Kd) with soluble human FcRn [2] of 990 nM.
QRFXTGHFGGLXPCNGP (Pen at 4; 4-amino-Phe at 12; disulfide; C-terminal amide) [Peptide No. 63] gave an IC50 with soluble human FcRn [13] of 110 µM. In the test with soluble human FcRn [14], the Kd stood at 34 µM.
